Our source for the Km values is PMC3567105, “Analysis of the Enzymatic Properties of a Broad Family of Alanine Aminotransferases” (PLoS ONE, 2013).

Common to all, as to assay: cells, lysate or membranes
Substrate in series [1]: CC(=O)C(=O)O
Type of series: biochemical, Hordeum vulgare. As to conditions: 50 mM glutamate, 100 mM NH4Cl, 0.1 M Tris-HCl pH 8.0, 20°C, 10 µM PLP, unpurified extract.

Substrate in series [2]: O=C(O)CCC(=O)C(=O)O
Type of series: biochemical, Hordeum vulgare. The note with it: 100 mM alanine, 0.1 M Tris-HCl pH 8.0, 20°C, 10 µM PLP, unpurified extract.

Substrate in series [3]: C[C@H](N)C(=O)O
As to conditions: 10 mM 2-oxoglutarate, 0.1 M Tris-HCl pH 8.0, 20°C, 10 µM PLP, unpurified extract.

Substrate in series [4]: CC(=O)C(=O)O
It is filed as biochemical, Arabidopsis thaliana. The note with it: 50 mM glutamate, 100 mM NH4Cl, 0.1 M Tris-HCl pH 8.0, 20°C, 10 µM PLP, unpurified extract.

Substrate in series [5]: O=C(O)CCC(=O)C(=O)O
It is filed as biochemical, Arabidopsis thaliana. The note with it: 100 mM alanine, 0.1 M Tris-HCl pH 8.0, 20°C, 10 µM PLP, unpurified extract.

Substrate in series [6]: O=C(O)CCC(=O)C(=O)O
It is filed as biochemical, Saccharomyces cerevisiae. The note with it: 100 mM alanine, 0.1 M Tris-HCl pH 8.0, 20°C, 10 µM PLP, unpurified extract.

Substrate in series [7]: N[C@@H](CCC(=O)O)C(=O)O
It is filed as biochemical, Arabidopsis thaliana. The note with it: 10 mM pyruvate, 100 mM NH4Cl, 0.1 M Tris-HCl pH 8.0, 20°C, 10 µM PLP, unpurified extract.

Substrate in series [8]: N[C@@H](CCC(=O)O)C(=O)O
Type of series: biochemical, Mus musculus. As to conditions: 10 mM pyruvate, 100 mM NH4Cl, 0.1 M Tris-HCl pH 8.0, 20°C, 10 µM PLP, unpurified extract.

Substrate in series [9]: O=C(O)CCC(=O)C(=O)O
It is filed as biochemical, Mus musculus. As to conditions: 100 mM alanine, 0.1 M Tris-HCl pH 8.0, 20°C, 10 µM PLP, unpurified extract.

Substrate in series [10]: N[C@@H](CCC(=O)O)C(=O)O
Type of series: biochemical, Pyrococcus furiosus. The note with it: 10 mM pyruvate, 100 mM NH4Cl, 0.1 M Tris-HCl pH 8.0, 20°C, 10 µM PLP, unpurified extract.

Substrate in series [11]: O=C(O)CCC(=O)C(=O)O
It is filed as biochemical, Pyrococcus furiosus. As to conditions: 100 mM alanine, 0.1 M Tris-HCl pH 8.0, 20°C, 10 µM PLP, unpurified extract.

B1: HvAlaAT (Hordeum vulgare) (protein)
chain: MAATVAVDNLNPKVLKCEYAVRGEIVIHAQRLQEQLKTQPGSLPFDEILYCNIGNPQSLGQQPVTFFREVLALCDHPDLLQREEIKTLFSADSISRAKQILAMIPGRATGAYSHSQGIKGLRDAIASGIASRDGFPANADDIFLTDGASPGVHLMMQLLIRNEKDGILVPIPQYPLYSASIALHGGALVPYYLNESTGWGLETSDVKKQLEDARSRGINVRALVVINPGNPTGQVLAEENQYDIVKFCKNEGLVLLADEVYQENIYVDNKKFHSFKKIVRSLGYGEEDLPLVSYQSVSKGYYGECGKRGGYFEITGFSAPVREQIYKIASVNLCSNITGQILASLVMNPPKASDESYASYKAEKDGILASLARRAKALEHAFNKLEGITCNEAEGAMYVFPQICLPQKAIEAAKAANKAPDAFYALRLLESTGIVVVPGSGFGQVPGTWHFRCTILPQEDKIPAVISRFTVFHEAFMSEYRD
notes: untagged, from cDNA, pBAD18-Kan, E. coli TR61, desalted whole-protein extract, not purified
As usually defined, the Km is the substrate concentration at which the rate is half of its maximum. Take B1: the values for the Michaelis constant (Km) in series [1] and in series [2] were 100 ± 0 µM and 200 ± 0 µM, respectively.

B2: AtGGAT2 (Arabidopsis thaliana) (protein)
chain: MSLKALDYESLNENVKNCQYAVRGELYLRASELQKEGKKIIFTNVGNPHALGQKPLTFPRQVVSLCQAPFLLDDPNVGMIFPADAIARAKHYLSLTSGGLGAYSDSRGLPGVRKEVAEFIERRDGYPSDPELIFLTDGASKGVMQILNCVIRGQKDGILVPVPQYPLYSATISLLGGTLVPYYLEESENWGLDVNNLRQSVAQARSQGITVRAMVIINPGNPTGQCLSEANIREILRFCCDERLVLLGDEVYQQNIYQDERPFISSKKVLMDMGAPISKEVQLISFHTVSKGYWGECGQRGGYFEMTNIPPRTVEEIYKVASIALSPNVSAQIFMGLMVSPPKPGDISYDQFVRESKGILESLRRRARMMTDGFNSCKNVVCNFTEGAMYSFPQIKLPSKAIQAAKQAGKVPDVFYCLKLLEATGISTVPGSGFGQKEGVFHLRTTILPAEEEMPEIMDSFKKFNDEFMSQYADNFGYSRM
notes: untagged, pBAD18-Kan, E. coli TR61, desalted whole-protein extract, not purified
As for B2, the Km in [3] was 1200 ± 100 µM; in series [4], 18500 ± 2700 µM; in series [5], 8800 ± 1800 µM.

B3: ScAlaAT1 (Saccharomyces cerevisiae S288C) (protein)
chain: SSSWIVAQNHRRSLSGQSSLNDLRHLNRFPHHTLKTSNNEFYPAEQLTLEDVNENVLKAKYAVRGAIPMRAEELKAQLEKDPQSLPFDRIINANIGNPQQLQQKPLTYYRQVLSLLQYPELLNQNEQQLVDSKLFKLDAIKRAKSLMEDIGGSVGAYSSSQGVEGIRKSVAEFITKRDEGEISYPEDIFLTAGASAAVNYLLSIFCRGPETGVLIPIPQYPLYTATLALNNSQALPYYLDENSGWSTNPEEIETVVKEAIQNEIKPTVLVVINPGNPTGAVLSPESIAQIFEVAAKYGTVVIADEVYQENIFPGTKFHSMKKILRHLQREHPGKFDNVQLASLHSTSKGVSGECGQRGGYMELTGFSHEMRQVILKLASISLCPVVTGQALVDLMVRPPVEGEESFESDQAERNSIHEKLITRAMTLYETFNSLEGIECQKPQGAMYLFPKIDLPFKAVQEARHLELTPDEFYCKKLLESTGICTVPGSGFGQEPGTYHLRTTFLAPGLEWIKKWESFHKEFFDQYRD
notes: as for B2
Take B3: the Michaelis-Menten constant (Km) in [3] came out at 300 ± 100 µM; in [6], 500 ± 100 µM.

B4: AtAlaAT2 (Arabidopsis thaliana) (protein)
chain: SSTSEMSASDSTSSLPVTLDSINPKVLKCEYAVRGEIVNIAQKLQEDLKTNKDAYPFDEIIYCNIGNPQSLGQLPIKFFREVLALCDHASLLDESETHGLFSTDSIDRAWRILDHIPGRATGAYSHSQGIKGLRDVIAAGIEARDGFPADPNDIFLTDGASPAVHMMMQLLLSSEKDGILSPIPQYPLYSASIALHGGSLVPYYLDEATGWGLEISDLKKQLEEARSKGISVRALVVINPGNPTGQVLAEENQRDIVNFCKQEGLVLLADEVYQENVYVPDKKFHSFKKVARSLGYGEKDISLVSFQSVSKGYYGECGKRGGYMEVTGFTSDVREQIYKMASVNLCSNISGQILASLVMSPPKPGDDSYDSYMAERDGILSSMAKRAKTLEDALNSLEGVTCNRAEGAMYLFPRINLPQKAIEAAEAEKTAPDAFYCKRLLNATGVVVVPGSGFGQVPGTWHFRCTILPQEDKIPAIVNRLTEFHKSFMDEFRN
notes: as for B2
Take B4: the Km is 5100 ± 900 µM in [4], 4900 ± 1100 µM in series [7] and 1000 ± 100 µM in [5].

B5: AtGGAT1 (Arabidopsis thaliana) (protein)
chain: MALKALDYDTLNENVKKCQYAVRGELYLRASELQKEGKKIIFTNVGNPHALGQKPLTFPRQVVALCQAPFLLDDPNVGMLFPADAIARAKHYLSLTSGGLGAYSDSRGLPGVRKEVAEFIQRRDGYPSDPELIFLTDGASKGVMQILNCVIRGNGDGILVPVPQYPLYSATISLLGGTLVPYYLDESENWGLDVANLRQSVAQARSQGITVRAMVIINPGNPTGQCLSEANIREILKFCYNEKLVLLGDEVYQQNIYQDERPFISSKKVLMEMGSPFSKEVQLVSFHTVSKGYWGECGQRGGYFEMTNLPPRVVEEIYKVASIALSPNVSAQIFMGLMVNPPKPGDISYDQFARESKGILESLRRRARLMTDGFNSCKNVVCNFTEGAMYSFPQIRLPTGALQAAKQAGKVPDVFYCLKLLEATGISTVPGSGFGQKEGVFHLRTTILPAEDEMPEIMDSFKKFNDEFMTQYDNNFGYSKM
notes: as for B2
In the case of B5, the Michaelis-Menten constant (Km) in [3] came out at 1900 ± 500 µM; in series [4], 600 ± 100 µM; in series [5] it was 200 ± 100 µM.

B6: MmAlaAT1 (Mus musculus) (protein)
chain: ASQRNDRIQASRNGLKGKVLTLDTMNPCVRRVEYAVRGPIVQRALELEQELRQGVKKPFTEVIRANIGDAQAMGQRPITFFRQVLALCVYPNLLSSPDFPEDAKRRAERILQACGGHSLGAYSISSGIQPIREDVAQYIERRDGGIPADPNNIFLSTGASDAIVTMLKLLVAGEGRARTGVLIPIPQYPLYSAALAELDAVQVDYYLDEERAWALDIAELRRALCQARDRCCPRVLCVINPGNPTGQVQTRECIEAVIRFAFEEGLFLMADEVYQDNVYAEGSQFHSFKKVLTEMGPPYATQQELASFHSVSKGYMGECGFRGGYVEVVNMDAEVQKQMAKLMSVRLCPPVPGQALMGMVVSPPTPSEPSFKQFQAERQEVLAELAAKAKLTEQVFNEAPGIRCNPVQGAMYSFPQIQLPLKAVQRAQDLGLAPDMFFCLCLLEETGICVVPGSGFGQQEGTYHFRMTILPPMEKLRVLLEKLRHFHAKFTHEYS
notes: as for B2
As for B6, the results for the Km in series [8] and in series [9] were 13000 ± 2400 µM and 100 ± 100 µM, respectively.

B7: AtAlaAT1 (Arabidopsis thaliana) (protein)
chain: SASDSSSSLPVTLDTINPKVIKCEYAVRGEIVNIAQKLQEDLKTNKDAYPFDEIIYCNIGNPQSLGQQPITFFREVLALCSYTALLDESATHGLFSSDSIERAWKILDQIPGRATGAYSHSQGIKGLRDAIADGIEARDGFPADPNDIFMTDGASPGVHMMMQLLITSEKDGILCPIPQYPLYSASIALHGGTLVPYYLDEASGWGLEISELKKQLEDARSKGITVRALAVINPGNPTGQVLSEENQRDVVKFCKQEGLVLLADEVYQENVYVPDKKFHSFKKVARSMGYGEKDLALVSFQSVSKGYYGECGKRGGYMEVTGFTSDVREQIYKMASVNLCSNISGQILASLIMSPPKPGDDSYESYIAEKDGILSSLARRAKTLEEALNKLEGVTCNRAEGAMYLFPCLHLPQKAIAAAEAEKTAPDNFYCKRLLKATGIVVVPGSGFRQVPGTWHFRCTILPQEDKIPAIVDRLTAFHQSFMDEFRD
notes: as for B2
In the case of B7, the Km in [3] came to 2400 ± 500 µM; in [4] it was 100 ± 0 µM; in [5], 100 ± 0 µM.

B8: PfAlaAT (Pyrococcus furiosus DSM 3638) (protein)
chain: MIRASKRALSVEYAIRDVVLPARELEKKGIKVIRLNIGDPVKFDFQPPEHMKEAYCKAIKEGHNYYGDSEGLPELRKAIVEREKRKNGVDITPDDVRVTAAVTEALQLIFGALLDPGDEILVPGPSYPPYTGLVKFYGGKPVEYRTIEEEDWQPDIDDIRKKITDRTKAIAVINPNNPTGALYDKKTLEEILNIAGEYEIPVISDEIYDLMTYEGEHISPGSLTKDVPVIVMNGLSKVYFATGWRLGYMYFVDPENKLSEVREAIDRLARIRLCPNTPAQFAAIAGLTGPMDYLKEYMKKLKERRDYIYKRLNEIPGISTTKPQGAFYIFPKIEVGPWKNDKEFVLDVLHNAHVLFVHGSGFGEYGAGHFRAVFLPPIEILEEAMDRFEKFMKERLKE
notes: as for B2
Turning to B8, the Michaelis-Menten constant (Km) in series [10] amounted to 900 ± 100 µM; in series [11], 20 ± 0 µM.
